Experimental data reported in patent US10407638B2, “Production of alpha-olefins” (TOTAL RAFFINAGE CHIMIE, priority 2015, dated 2019).

B1: Aa162: decarboxylase (olefin-producing enzyme) from Alicyclobacillus acidocaldarius, SEQ ID NO:6 (protein, listed as Alicyclobacillus acidocaldarius)
chain: MNQCIPRDRTFDSSLALIKEGYLFIKNRVDQYQSDIFEARLLLENVVCMHGAEAAKLFYNTELFQRQGALPKRVQKTLFGENAIQTLDGTAHLHRKQLFLSLLTPDQEKSLATLATTQWRECAKVWENADRVVLFEEAKRMLCRIACQWTGVPLDESEVSKRADDFGAMVDAFGAVGPRHWKGRRARARAEAWLRQMIDEIRIGLRSVDEHTPLHVVAFWRDVNGNLLDAQMVAIELINLLRPIVAISTFITFSALALHEHPTWRDRLKARNEADIEMFVQEVRRYYPFAPFLGARVKKDFVWRGYEFKRGTLVLLDVYGTHHDARLWDSPNEFRPERFMRKTVGPFDLIPQGGGDSHTGHRCPGEGATIEIMKASVDFLVNQIDFEVPAQDLSYRLDVMPTLPKSGFVLTHVHRKFIASPTIATPNGSEALPSEV
B2: Sm46: olefin-producing enzyme from Staphilococcus massiliensis, SEQ ID NO:8 (protein, listed as Staphylococcus massiliensis)
chain: MFVDSILVLRLNLLKTGIQLEMKNGGIKVAKKLPKVKGLDNTVDIIKGGYTYVPGKLEEFDSKAFEVRALGGKKIAVMSGKEAAEIFYDNEKMERQGTLPKRIVNTLFGKGAIHTTAGKKHVDRKALFMSLMTDENLNYLRELTRNYWFMNTERMQSMDKVNVYNESIYMLTKIGFRWAGIIQTPEEAEQNAKDMDTMINSFVSLGSAYKGYKKAKKARKRVEDFLEKQIIDVRKGKLHPEEGTALYEFAHWEDLNDNPMDSHLCAVDLMNVVRPLAAINRFISYGVKVLIEFDQEKEKLRLENNEDYAYKFAQEVRRIFPFVPYLPGRAAVDLEYDGYKIPAGMMTALDVYGTTHDEDLWENPDQFNPNRFDNWDGSPFDLIPQGGGDFYTNHRCAGEWITVIIMEETMKYFANKIEFDVPSQDLSVKLDKLPGNVTSGTIISNVRPRVARK
B3: Sm46-del29: truncated variant of Sm46 with the N-terminal 29 amino acids deleted, SEQ ID NO:13 (protein)
chain: AKKLPKVKGLDNTVDIIKGGYTYVPGKLEEFDSKAFEVRALGGKKIAVMSGKEAAEIFYDNEKMERQGTLPKRIVNTLFGKGAIHTTAGKKHVDRKALFMSLMTDENLNYLRELTRNYWFMNTERMQSMDKVNVYNESIYMLTKIGFRWAGIIQTPEEAEQNAKDMDTMINSFVSLGSAYKGYKKAKKARKRVEDFLEKQIIDVRKGKLHPEEGTALYEFAHWEDLNDNPMDSHLCAVDLMNVVRPLAAINRFISYGVKVLIEFDQEKEKLRLENNEDYAYKFAQEVRRIFPFVPYLPGRAAVDLEYDGYKIPAGMMTALDVYGTTHDEDLWENPDQFNPNRFDNWDGSPFDLIPQGGGDFYTNHRCAGEWITVIIMEETMKYFANKIEFDVPSQDLSVKLDKLPGNVTSGTIISNVRPRVARK
modifications: Sm46-del29
B4: Bs168: P450BSβ fatty acid hydroxylase from Bacillus subtilis subsp. subtilis str. 168, SEQ ID NO:4 (protein, listed as Bacillus subtilis)
chain: MNEQIPHDKSLDNSLTLLKEGYLFIKNRTERYNSDLFQARLLGKNFICMTGAEAAKVFYDTDRFQRQNALPKRVQKSLFGVNAIQGMDGSAHIHRKMLFLSLMTPPHQKRLAELMTEEWKAAVTRWEKADEVVLFEEAKEILCRVACYWAGVPLKETEVKERADDFIDMVDAFGAVGPRHWKGRRARPRAEEWIEVMIEDARAGLLKTTSGTALHEMAFHTQEDGSQLDSRMAAIELINVLRPIVAISYFLVFSALALHEHPKYKEWLRSGNSREREMFVQEVRRYYPFGPFLGALVKKDFVWNNCEFKKGTSVLLDLYGTNHDPRLWDHPDEFRPERFAEREENLFDMIPQGGGHAEKGHRCPGEGITIEVMKASLDFLVHQIEYDVPEQSLHYSLARMPSLPESGFVMSGIRRKS
B5: OleTJE: P450 decarboxylase from Jeotgalicoccus sp. ATCC 8456, decarboxylates C12 to C20 free fatty acids to α-olefins (protein, listed as Jeotgalicoccus sp.)
chain: MATLKRDKGLDNTLKVLKQGYLYTTNQRNRLNTSVFQTKALGGKPFVVVTGKEGAEMFYNNDVVQREGMLPKRIVNTLFGKGAIHTVDGKKHVDRKALFMSLMTEGNLNYVRELTRTLWHANTQRMESMDEVNIYRESIVLLTKVGTRWAGVQAPPEDIERIATDMDIMIDSFRALGGAFKGYKASKEARRRVEDWLEEQIIETRKGNIHPPEGTALYEFAHWEDYLGNPMDSRTCAIDLMNTFRPLIAINRFVSFGLHAMNENPITREKIKSEPDYAYKFAQEVRRYYPFVPFLPGKAKVDIDFQGVTIPAGVGLALDVYGTTHDESLWDDPNEFRPERFETWDGSPFDLIPQGGGDYWTNHRCAGEWITVIIMEETMKYFAEKITYDVPEQDLEVDLNSIPGYVKSGFVIKNVREVVDRT

Experiments:
Type in all cases: biochemical
[1] = In vitro olefin biosynthesis assay with supernatant of E. coli lysates expressing the enzyme, GC/MS; details: for fatty acid decarboxylase activity (α-olefin production): C12, C14 or C16 fatty acid substrate (1 mM), H2O2 500 μM
Experimental: FIG. 4: In vitro production of α-olefins by OleTJE, Bs168, Aa162 and Sm46. Genes encoding OleTJ, Bs168, Aa162 and Sm46 were recombinantly expressed in E. coli. The supernatant of the E. coli lysates was used in an in vitro assay for α-olefin biosynthesis in the presence of C12, C14 or C16 fatty acid substrate (1 mM) and H2O2 (500 μM). C11, C13 and C15 α-olefin production by the different enzymes is indicated as the area under the gas chromatographic (GC) peak.
E. coli BL21(DE3) cells (Novagen) carrying a recombinant plasmid or an empty PET28a plasmid (control) were cultured for several cycles to ensure best growth state at 37° C. in 10 mL LB medium supplemented with 50 μg/ml of kanamycin, followed by inoculation (1:100 ratio) into 50 mL fresh Terrific Broth medium containing 50 μg/ml of kanamycin, 1 mM thiamine, 10% glycerol and a rare salt solution (6750 mg/l FeCl3, 500 mg/l ZnCl2, 500 mg/l CoCl2, 500 mg/l Na2MoO4, 250 mg/l CaCl2, 465 mg/l CuSO4, and 125 mg/l H31303) at 37° C. Cells were grown at 37° C. for 3 to 4 h until the optical density at 600 nm (OD600) reached 0.6 to 0.8, at which 0.2 or 0.4 mM isopropyl-β-D-thiogalactopyranoside (IPTG) and 0.5 mM 5-aminolevulinic acid were added, followed by 18 h of cultivation at 16° C.
Then, the cell cultures were recovered by centrifugation (at 4° C.) and re-suspended in 1.5 mL 50 mM Tris buffer, pH 7.5, containing 0.1 M NaCl. The re-suspended cell cultures were disrupted by sonication and centrifuged at 13,000×g for 30 min (4° C.). The supernatant was collected and the pellet was re-suspended in 1.5 mL 50 mM Tris buffer, pH 7.5, containing 0.1 M NaCl for further analysis. An SDS gel was run to check the expression of the genes using 15 μL of supernatant or pellet solution mixed with 5 μL of 4× loading buffer (FIG. 3).
In vitro olefin biosynthesis was evaluated by adding to the supernatant a fatty acid substrate in DMSO to a final concentration of 0.2 mM (1:100 dilution) or 1 mM (1:10 dilution), and 500 μM H2O2. The reaction mixture was incubated at 28° C. for 2-3 h, or stopped using 50 μL of 10 M HCl at t=0, 15, 30, 60 and 120 min for a dynamic test. Then, C16 fatty acid was added at a final concentration of 0.2 mM (1:100 dilution) as an internal standard. 300 μL reaction mixture of each reaction condition was extracted with equal volume of ethyl acetate, and the organic phase was analyzed for hydrocarbons by gas chromatography/mass spectrometry (GC/MS). In the meanwhile, undecene of different concentrations (0, 0.05 mM, 0.1 mM, 0.2 mM and 0.5 mM) were tested to produce a standard curve.

[2] = Fatty acid decarboxylation assay with purified Sm46-del29, GC
Experimental: FIG. 6: In vitro conversion of free fatty acids into α-olefins by a truncated variant of Sm46: Sm46-del29. Conversion percentages of the free fatty acid substrates (A) and the corresponding α-alkene products (B) are shown.
The fatty acid decarboxylation assays containing 1.0 μM Sm46-del29, 200 μM fatty acid substrate (from C8 to C20), 220 μM H2O2 in 200 μl of storage buffer were carried out at 28° C. for 2 h. Reactions were quenched by the addition of 20 μl of 10 M HCl. Heptadecanoic acid was added as internal standard and the mixture was extracted by 200 μl ethyl acetate. Following extraction, the organic phase was collected and analyzed by gas chromatography as described below.
The GC analytical method for hydrocarbon and fatty acid samples was adapted from Guan et al. (2011 J Chromatogr A 1218:8289-8293). The analyses were performed on an Agilent 7890B gas chromatograph equipped with a capillary column HP-INNOWAX (Agilent Technologies, Santa Clara, Calif., USA; cross-linked polyethylene glycerol, i.d. 0.25 μm film thickness, 30 m by 0.25 mm). The helium flow rate was set to 1 ml per minute. The oven temperature was controlled initially at 40° C. for 4 min, then increased at the rate of 10° C. per min to 250° C., and held for 5 min. The injecting temperature was set to 280° C. with the injection volume of 1 μl under splitless injection conditions. The response factors between fatty acids and alkenes were determined by analyzing known authentic fatty acids (C10-C20), 1-alkenes (C9-C19) and 1-heptadecanoic acid standards as described in Liu et al. (2014 Biotechnol. Biofuels 7:28).

[3] = Reaction of purified enzymes with C14 fatty acid, analysis of decarboxylation and hydroxylation products; details: compared with Bs168 and Aa162; FIG. 7
Experimental: FIG. 7: In vitro production of α-olefins by Aa162, Bs168 and Sm46-del29. Recombinantly expressed and purified enzyme (0.2 μM) was used in an in vitro assay for α-olefin biosynthesis in the presence of C14 fatty acid substrate. The conversion percentages are shown for, from left to right, C14 free fatty acid substrate, C13 α-olefin, α-hydroxy C14 fatty acid, β-hydroxy C14 fatty acid.
Recombinantly expressed and purified Bs168 and Aa162 from Example 1 and Sm46-del29 of Example 2 were reacted with C14 fatty acid and the products of decarboxylation (C13 α-olefin) and hydroxylation (α-OH—O14 fatty acid and β-OH—C14 fatty acid) reactions were analyzed.

[4] = C12, C14 or C16 fatty acid substrate, FIG. 4

Molecule	fatty acid decarboxylase activity (α-olefin production) ([1]; FIG. 4)	substrate preference [1, 4]	other results
B1	fatty acid decarboxylase activity	preference for C12 fatty acid substrate	–
B2	fatty acid decarboxylase activity	–	substrate preference ([1]; later experiments, data not shown): substrate preference for C12 fatty acid substrate
B3	–	–	decarboxylase activity ([2]; 1.0 μM enzyme, 200 μM fatty acid, 220 μM H2O2, 28° C., 2 h, FIG. 6): had decarboxylase activity; decarboxylation of C10 free fatty acid ([2]; C9 α-olefin not detected due to volatility): able to decarboxylate C10 free fatty acid; substrate preference for α-olefin production ([2]; among tested fatty acid substrates C8 to C20, FIG. 6): substrate preference for C12 free fatty acid; formation of hydroxy fatty acids [3]: formed less hydroxy fatty acids
B4	fatty acid decarboxylase activity	preference for C12 fatty acid substrate	–
B5	fatty acid decarboxylase activity	–	–
